Holding throughout (test): cell-based or functional assay
Assay [1] addresses HIV-1 MGRM-A-003 envelope glycoprotein (Env) (HIV-1).
Assay [2] has as its target HIV-1 93MW959 envelope glycoprotein (Env) on pseudovirus (HIV-1).
Assay [3] has as its target HIV-1 92UG005 envelope glycoprotein (Env) on pseudovirus (HIV-1).
Assay [4] deals with HIV-1 Env of isolate MGRM-G-019 (clade G pseudovirus) (HIV-1).
Assay [5] has as its target HIV-1 93IN905 Env (HIV-1).
Assay [6] concerns the target HIV-1 Env of isolate MGRM-G-016 (clade G pseudovirus) (HIV-1).
In assay [7] the target is HIV-1 NL43 envelope protein (Env) on pseudovirus (HIV-1).
Assay [8] has as its target HIV-1 92RW009 envelope glycoprotein (Env) (HIV-1).
Assay [9] addresses HIV-1 Env of isolate 92UG001 (clade D) (HIV-1).
Assay [10] deals with HIV-1 Env of isolate 92UG024 (clade D) (HIV-1).
Assay [11] concerns the target HIV-1 MGRM-A-009 envelope glycoprotein (Env) (HIV-1).
The target of assay [12] is HIV-1 Env of isolate MGRM-D-003 (clade D) (HIV-1).
The target of assay [13] is HIV-1 92UG024 envelope protein (Env) on pseudovirus (HIV-1).
Assay [14] has as its target HIV-1 MGRM-F1-010 Env (pseudovirus) (HIV-1).
Assay [15] has as its target HIV-1 Env of isolate MGRM-D-018 (clade D) (HIV-1).
For assay [16], the target named is HIV-1 Env of isolate MGRM-G-006 (subtype G) (HIV-1).
Assay [17] has as its target HIV-1 Env of isolate MGRM-D-013 (HIV-1).
The target in assay [18] is HIV-1 Env of isolate MGRM-D-008 (HIV-1).
Assay [19] concerns the target HIV-1 APV6 envelope glycoprotein (Env) on pseudovirus (HIV-1).
Assay [20] concerns the target HIV-1 JRCSF envelope glycoprotein (Env) on pseudovirus (HIV-1) (UniProt P20871).
For assay [21], the target named is HIV-1 Env of isolate 92UG024 (HIV-1).
Assay [22] addresses HIV-1 Env of isolate MGRM-D-004 (HIV-1).
For assay [23], the target named is HIV-1 Env of isolate MGRM-G-027 (subtype G) (HIV-1).
Assay [24] addresses HIV-1 Env of isolate MGRM-D-011 (HIV-1).
In assay [25] the target is HIV-1 Env of isolate 92WR020 (HIV-1).
The target in assay [26] is HIV-1 Env of isolate MGRM-G-004 (subtype G) (HIV-1).
The target in assay [27] is HIV-1 Env of isolate MGRM-D-022 (HIV-1).
Assay [28] has as its target HIV-1 Env of isolate MGRM-F1-017 (HIV-1).

The record followed here is US20200024330A1.

Sequence of PGT-144 (4970_K22) (antibody) (VH): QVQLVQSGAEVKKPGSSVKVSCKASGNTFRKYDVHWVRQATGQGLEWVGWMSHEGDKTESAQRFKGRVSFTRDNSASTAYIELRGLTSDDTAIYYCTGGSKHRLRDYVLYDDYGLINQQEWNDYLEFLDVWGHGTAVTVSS
Sequence of PGT-144 (4970_K22) (antibody) (VL): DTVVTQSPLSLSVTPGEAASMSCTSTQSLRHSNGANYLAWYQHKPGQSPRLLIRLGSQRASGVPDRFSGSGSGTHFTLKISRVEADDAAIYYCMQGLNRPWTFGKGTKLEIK
Sequence of PGT-143 (4980_N08) (antibody) (VH): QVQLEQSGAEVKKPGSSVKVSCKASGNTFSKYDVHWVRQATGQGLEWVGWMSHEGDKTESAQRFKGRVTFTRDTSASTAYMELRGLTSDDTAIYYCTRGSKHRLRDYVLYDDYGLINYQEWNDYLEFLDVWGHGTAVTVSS
Sequence of PGT-143 (4980_N08) (antibody) (VL): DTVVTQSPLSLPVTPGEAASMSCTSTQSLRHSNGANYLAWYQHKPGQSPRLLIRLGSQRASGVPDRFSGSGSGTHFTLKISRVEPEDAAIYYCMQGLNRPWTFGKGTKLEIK
Sequence of 1443_C16 (PG16) (TCN-116) (antibody) (VH): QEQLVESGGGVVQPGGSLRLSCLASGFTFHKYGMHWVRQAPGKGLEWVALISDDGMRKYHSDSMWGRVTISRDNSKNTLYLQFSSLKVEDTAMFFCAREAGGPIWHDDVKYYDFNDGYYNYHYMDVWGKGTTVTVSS
Sequence of 1443_C16 (PG16) (TCN-116) (antibody) (VL): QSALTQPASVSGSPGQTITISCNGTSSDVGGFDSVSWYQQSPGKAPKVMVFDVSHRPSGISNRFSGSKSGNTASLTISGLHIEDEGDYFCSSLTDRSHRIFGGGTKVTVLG
Sequence of PGT-142 (4995_E20) (antibody) (VH): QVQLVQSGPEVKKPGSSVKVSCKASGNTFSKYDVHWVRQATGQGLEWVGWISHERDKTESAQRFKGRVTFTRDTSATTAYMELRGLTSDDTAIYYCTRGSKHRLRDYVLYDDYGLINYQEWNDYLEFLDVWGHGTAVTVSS
Sequence of PGT-142 (4995_E20) (antibody) (VL): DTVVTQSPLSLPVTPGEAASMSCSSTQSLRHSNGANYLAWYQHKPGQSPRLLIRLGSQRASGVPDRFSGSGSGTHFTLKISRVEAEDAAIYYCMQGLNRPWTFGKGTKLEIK
Sequence of PGT-141 (4964_G22; 4993_K13) (antibody) (VH): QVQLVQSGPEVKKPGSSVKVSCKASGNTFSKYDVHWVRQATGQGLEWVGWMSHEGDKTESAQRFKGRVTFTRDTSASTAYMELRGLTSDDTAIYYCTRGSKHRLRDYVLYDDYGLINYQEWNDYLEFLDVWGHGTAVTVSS

Turning to 2F5 (antibody), the IC50 (µg/ml), pseudovirus neutralization was 7.37 µg/mL in [1]; > 50 µg/mL in assay [2]; > 50 µg/mL in [4]; 16.8 µg/mL in [6]; 39.1 µg/mL in assay [8]; 13 µg/mL in assay [9]. The IC50 (µg/ml), pseudovirus neutralization in assay [10] is 0.95 µg/mL; in assay [11], 9.4 µg/mL; in assay [12] it was > 50 µg/mL; in [14], 14.6 µg/mL; in assay [15], 4.05 µg/mL. In [3], the IC90 (pseudovirus neutralization) was > 50 µg/mL. Also, the IC50 (in general, the concentration needed to halve the response being measured) in [5] was > 50 µg/mL. Further, the values for the neutralization IC50 in assay [7] and in [13] were 2.41 µg/mL and 1.27 µg/mL, respectively.
Turning to 2G12 (antibody), the IC50 (µg/ml), pseudovirus neutralization in assay [1] is > 50 µg/mL; in assay [2] it was > 50 µg/mL; in assay [4], 31 µg/mL; in assay [6], > 50 µg/mL; in assay [8] it was 26.1 µg/mL; in assay [9], > 50 µg/mL. In addition, the IC50 (µg/ml), pseudovirus neutralization in [10] is 0.42 µg/mL; in [11], 7.47 µg/mL; in assay [12], > 50 µg/mL; in assay [15], 0.12 µg/mL. Further, the IC90 (pseudovirus neutralization) in assay [3] is > 50 µg/mL. Besides, in assay [5], the 50% inhibitory concentration (IC50) is > 50 µg/mL. Further, the values for the neutralization IC50 in assay [7] and in assay [13] were 0.75 µg/mL and 0.59 µg/mL, respectively.
Turning to 4E10 (antibody), the IC50 (µg/ml), pseudovirus neutralization in assay [1] was 5.94 µg/mL; in [2], 4.55 µg/mL; in assay [4] it was 6.53 µg/mL; in assay [6], 1.02 µg/mL; in assay [8], > 50 µg/mL; in assay [9] it was 13.6 µg/mL. For the same substance, the IC50 (µg/ml), pseudovirus neutralization in assay [10] worked out at 2.17 µg/mL; in assay [11] it was 12 µg/mL; in [12], 2.49 µg/mL; in assay [14], 3.69 µg/mL; in [15] it was 3.9 µg/mL. In addition, in assay [3], the IC90 (pseudovirus neutralization) is > 50 µg/mL. This substance also showed a 50% inhibitory concentration (IC50) in [5] of 1.26 µg/mL. Moreover, the neutralization IC50 in assay [7] stood at 4.95 µg/mL; in [13] it was 1.32 µg/mL.
As to 1443_C16 (PG16) (TCN-116) (antibody), the IC50 (µg/ml), pseudovirus neutralization in assay [1] was 2.65 µg/mL; in assay [2], 0.007 µg/mL; in assay [4], 1.21 µg/mL; in assay [6] it was 11.3 µg/mL; in assay [8], 0.11 µg/mL; in assay [9], > 50 µg/mL. Besides, the IC50 (µg/ml), pseudovirus neutralization came out at 24 µg/mL in [10]; 0.01 µg/mL in assay [11]; 0.01 µg/mL in assay [12]; 0.01 µg/mL in [14]; 0.004 µg/mL in assay [15]. Also, the IC90 (pseudovirus neutralization) in assay [3] is > 50 µg/mL. In addition, the IC50 in assay [5] was 0.25 µg/mL. Further, the neutralization IC50 is < 0.0025 µg/mL in [7] and > 50 µg/mL in assay [13].
As for 1495_C14 (PGC14) (antibody), the IC50 (µg/ml), pseudovirus neutralization in [1], in assay [2], in assay [4], in assay [6], in assay [8] and in [9] was > 50 µg/mL throughout. In addition, the IC50 (µg/ml), pseudovirus neutralization in assay [10], in [11], in assay [12], in [14] and in assay [15] was > 50 µg/mL each time. In assay [5], this substance had an IC50 of 19 µg/mL. Moreover, the neutralization IC50 in assay [7] is 0.373 µg/mL; in assay [13] it was > 50 µg/mL.
With 1496_C09 (PG9) (TCN-109) (antibody), the IC50 (µg/ml), pseudovirus neutralization in assay [1] amounted to 0.65 µg/mL; in assay [2], 0.04 µg/mL; in [4] it was 0.67 µg/mL; in assay [6], 0.4 µg/mL; in assay [8] it was 0.03 µg/mL; in assay [9] it was 41.8 µg/mL. The IC50 (µg/ml), pseudovirus neutralization in assay [10] is 1.91 µg/mL; in [11], 0.03 µg/mL; in assay [14], 0.03 µg/mL. The neutralization IC50 in assay [16] stood at 1.98 µg/mL; in assay [23], 0.007 µg/mL. Moreover, the IC50 (µg/mL), pseudovirus neutralization came out at 0.021 µg/mL in assay [17]; 11.5 µg/mL in assay [18]; 1.86 µg/mL in assay [21]; 0.06 µg/mL in assay [22]; 0.071 µg/mL in assay [24]. Besides, the IC50 in assay [5] stood at 0.03 µg/mL. For the same substance, the IC50 (ug/ml), neutralizing activity in assay [19] amounted to 0.214 µg/mL; in [20], 0.0048 µg/mL. Also, the results for the IC50 neutralization in assay [19] and in [20] were 0.214 µg/mL and 0.0048 µg/mL, respectively. Further, the IC80, neutralization in assay [19] was 1.13 µg/mL; in [20] it was 0.0181 µg/mL. Also, the IC90, neutralization in [19] came out at 3.21 µg/mL; in assay [20], 0.0391 µg/mL. For the same substance, the IC95, neutralization in assay [19] stood at 9.65 µg/mL; in [20], 0.0798 µg/mL.
PGT-121 (antibody) had an IC50 (µg/mL), pseudovirus neutralization in assay [25] of 0.004 µg/mL.
As for PGT-122 (antibody), the IC50 (µg/mL), pseudovirus neutralization in [25] worked out at 0.009 µg/mL.
For the substance PGT-141 (4964_G22; 4993_K13) (antibody), the values for the neutralization IC50 in assay [16], in [26] and in [23] were 0.043 µg/mL, > 50 µg/mL and > 50 µg/mL, respectively.
With PGT-142 (4995_E20) (antibody), the neutralization IC50 in assay [16] is 0.019 µg/mL; in assay [26] it was > 50 µg/mL; in assay [23], > 50 µg/mL.
With PGT-143 (4980_N08) (antibody), the neutralization IC50 was 0.031 µg/mL in [16], > 50 µg/mL in [26] and > 50 µg/mL in [23].
For the substance PGT-144 (4970_K22) (antibody), the neutralization IC50 in assay [16] was 3.84 µg/mL; in assay [26], > 50 µg/mL; in [23], > 50 µg/mL.
Take PGV04 (antibody): the neutralization IC50 in assay [16] is 0.083 µg/mL; in assay [26], > 50 µg/mL; in assay [23], 0.125 µg/mL. Also, the IC50 (µg/mL), pseudovirus neutralization is 0.088 µg/mL in assay [17]; 3.56 µg/mL in [18]; > 50 µg/mL in assay [27]; 0.201 µg/mL in assay [21]; 43.2 µg/mL in assay [22]; 0.025 µg/mL in assay [24].
Turning to VRC01 (antibody), the neutralization IC50 in assay [16] is 0.055 µg/mL; in [26] it was > 50 µg/mL; in [23], 0.36 µg/mL. In addition, the IC50, pseudovirus neutralization in [17] is 0.087 µg/mL; in assay [27] it was > 50 µg/mL; in assay [28] it was 1.08 µg/mL; in assay [24], 0.075 µg/mL.
For b12 (antibody), the IC50 (µg/ml), pseudovirus neutralization is > 50 µg/mL in assay [1]; > 50 µg/mL in assay [2]; 3.77 µg/mL in [4]; > 50 µg/mL in assay [6]; > 50 µg/mL in [8]; 1.01 µg/mL in assay [9]. For the same substance, the IC50 (µg/ml), pseudovirus neutralization in assay [10] is 45.6 µg/mL; in assay [11], 4.34 µg/mL; in assay [12], > 50 µg/mL; in assay [14], > 50 µg/mL; in [15] it was 1.39 µg/mL. The IC90 (pseudovirus neutralization) in assay [3] is > 50 µg/mL. The IC50 in assay [5] came out at 21.4 µg/mL. Moreover, the neutralization IC50 in [7] amounted to 0.06 µg/mL; in assay [13], 49.1 µg/mL.
